Measured values taken from patent US10456446B2, “Use of human small leucine zipper protein in osteogenesis procedure” (Korea University Research and Business Foundation, priority 2013, dated 2019).

Legend:
sLZIP TG mouse embryos = experiment: Ossification in vivo, alcian blue and alizarin red staining of sLZIP TG mouse embryos on E17.5; conditions: E17.5, compared with wild type littermate
Text: In order to generate human sLZIP transgenic (TG) mice, sLZIP genes were cloned into a pCMV-flag expression vector. The sLZIP TG mice were generated by Macrogen, Inc (Seoul, Korea). Transgenic founders were mated with wild type C57BL/6 mice to produce F1 heterozygotes. F1-F4 generations were genetically screened for transgenes at an age of 2 weeks old. The following two primers were used to amplify genomic DNA in order to identify wild type and TG mice: 5′-GGACGATGATGACAAGGACT-3′ (SEQ ID NO: 25) and 5′-GTCAGAGGAGTACATGCTGCT-3′(SEQ ID NO: 26).
(§1) Therefore, in order to characterize a potential role of sLZIP in the transcriptional activity of Runx2 by inhibiting the transcriptional activity of PPARγ2, the transcriptional activity of Runx2 was examined. For this purpose, 293T cells were temporarily transfected with Runx2 (0.5 μg), β-galactosidase (0.1 μg), 6 copies of Runx2 response elements (0.2 μg) and sLZIP at different contents (0.1 μg to 0.5 μg) (FIG. 7A). PPARγ2 (0.5 μg), β-galactosidase, Runx2, 6 copies of Runx2 response elements and sLZIP (0.5 μg) were expressed in the 293T cells (FIG. 7B). 293T cells were temporarily transfected with HDAC3 (0.5 μg), Runx2, β-galactosidase, 6 copies of Runx2 response elements and sLZIP at different contents (0.25 and 0.5 μg) (FIG. 7C). A promoter activity was measured by luciferase analysis. […]

NCoR1 = target: T1, NCoR1 (Homo sapiens, UniProt O75376); experiment: Immunoprecipitation of sLZIP with anti-NCoR1 antibodies in 293T cells; type: binding; conditions: 10 nM RZD for 24 hours
T1 construct: endogenous in cells; host or cells: 293T
Description: 293T cells were obtained and washed with cold PBS. The cells were re-suspended in an IP lysis buffer [25 mM of Tris-HCl (pH 7.4), 150 mM of NaCl, 1 mM of EDTA, 1% NP-40 and 5% glycerol, and a protease inhibitor]. A suspension was centrifuged at 16,000×g for 20 minutes at 4° C. Supernatants were collected and incubated with 0.5 μg of appropriate antibodies and 25 μl of protein A/G-agarose or a GST Sepharose 4B bead for 24 hours at 4° C. A protein complex was centrifuged at 1,000×g with a cold IP lysis buffer for 1 minute and washed five times. The final pellet was re-suspended in 50 μl of an SDS-sample buffer containing 5% β-mercaptoethanol and heated for 10 minutes at 100° C. A protein sample was isolated in SDS-PAGE (8 to 10%) and transferred to nitrocellulose membranes. Co-precipitated proteins were detected according to western blotting using specific antibodies.
For this purpose, 293T cells were transfected with GST-PPARγ2 and Flag-sLZIP and were treated or not treated with 10 nM of RZD for 24 hours. […] A protein complex was analyzed in SDS-PAGE, and immunoblotted with anti-GST and anti-Flag antibodies. […] The cell lysates were GST pull-down analyzed (FIG. 5C). […] The cell lysates were GST pull-down analyzed (FIG. 5D). […] A protein complex was analyzed in SDS-PAGE, and then immunoblotted with anti-NCoR1 and anti-Flag antibodies (FIG. 5E). […]

MEF cells = experiment: Osteoblast differentiation in MEF cells, alizarin red staining; type: cell-based; conditions: differentiation medium for 8 days
Description: Primary human mesenchymal stem cells (MSCs), C3H10T1/2, 293T and MEF cells were cultured in a DMEM to which thermally inactivated 10% FBS and penicillin (100 U/mL)/streptomycin (100 μg/mL) were added. All cell types were cultured in a humidified incubator containing CO2 5% under a temperature condition of 37° C. In order to induce osteoblast differentiation, the medium was exchanged with a DMEM in which 50 μg/mL of ascorbic acid, 10 mM of β-glycerophosphate and 10% FBS were contained for 8 days. The differentiation medium was changed once every two days.
as §1

PPARγ2 = target: T2, PPARγ2 (Mus musculus, UniProt P37238); experiment: PPARγ2 transcriptional activity in FABP4-Luc stable C3H10T1/2 cells differentiated into adipocytes; type: cell-based; conditions: sLZIP-expressing adenovirus, differentiated into adipocytes for 4 days
T2 construct: endogenous in cells
T2 sequence (P37238 1-505): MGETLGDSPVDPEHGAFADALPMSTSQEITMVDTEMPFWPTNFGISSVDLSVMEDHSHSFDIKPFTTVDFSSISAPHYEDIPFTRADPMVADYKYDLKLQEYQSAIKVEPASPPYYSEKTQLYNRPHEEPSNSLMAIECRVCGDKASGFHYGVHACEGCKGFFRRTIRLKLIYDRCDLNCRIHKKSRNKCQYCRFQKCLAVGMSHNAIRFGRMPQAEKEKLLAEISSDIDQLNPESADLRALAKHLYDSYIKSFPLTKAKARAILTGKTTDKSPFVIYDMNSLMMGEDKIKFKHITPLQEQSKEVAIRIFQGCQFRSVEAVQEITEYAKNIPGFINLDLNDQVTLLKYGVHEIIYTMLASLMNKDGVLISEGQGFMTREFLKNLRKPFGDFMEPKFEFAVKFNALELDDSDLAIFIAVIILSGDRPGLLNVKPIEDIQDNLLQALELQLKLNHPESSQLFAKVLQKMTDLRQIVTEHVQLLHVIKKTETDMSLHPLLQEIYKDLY

T1 sequence (O75376 whole entry): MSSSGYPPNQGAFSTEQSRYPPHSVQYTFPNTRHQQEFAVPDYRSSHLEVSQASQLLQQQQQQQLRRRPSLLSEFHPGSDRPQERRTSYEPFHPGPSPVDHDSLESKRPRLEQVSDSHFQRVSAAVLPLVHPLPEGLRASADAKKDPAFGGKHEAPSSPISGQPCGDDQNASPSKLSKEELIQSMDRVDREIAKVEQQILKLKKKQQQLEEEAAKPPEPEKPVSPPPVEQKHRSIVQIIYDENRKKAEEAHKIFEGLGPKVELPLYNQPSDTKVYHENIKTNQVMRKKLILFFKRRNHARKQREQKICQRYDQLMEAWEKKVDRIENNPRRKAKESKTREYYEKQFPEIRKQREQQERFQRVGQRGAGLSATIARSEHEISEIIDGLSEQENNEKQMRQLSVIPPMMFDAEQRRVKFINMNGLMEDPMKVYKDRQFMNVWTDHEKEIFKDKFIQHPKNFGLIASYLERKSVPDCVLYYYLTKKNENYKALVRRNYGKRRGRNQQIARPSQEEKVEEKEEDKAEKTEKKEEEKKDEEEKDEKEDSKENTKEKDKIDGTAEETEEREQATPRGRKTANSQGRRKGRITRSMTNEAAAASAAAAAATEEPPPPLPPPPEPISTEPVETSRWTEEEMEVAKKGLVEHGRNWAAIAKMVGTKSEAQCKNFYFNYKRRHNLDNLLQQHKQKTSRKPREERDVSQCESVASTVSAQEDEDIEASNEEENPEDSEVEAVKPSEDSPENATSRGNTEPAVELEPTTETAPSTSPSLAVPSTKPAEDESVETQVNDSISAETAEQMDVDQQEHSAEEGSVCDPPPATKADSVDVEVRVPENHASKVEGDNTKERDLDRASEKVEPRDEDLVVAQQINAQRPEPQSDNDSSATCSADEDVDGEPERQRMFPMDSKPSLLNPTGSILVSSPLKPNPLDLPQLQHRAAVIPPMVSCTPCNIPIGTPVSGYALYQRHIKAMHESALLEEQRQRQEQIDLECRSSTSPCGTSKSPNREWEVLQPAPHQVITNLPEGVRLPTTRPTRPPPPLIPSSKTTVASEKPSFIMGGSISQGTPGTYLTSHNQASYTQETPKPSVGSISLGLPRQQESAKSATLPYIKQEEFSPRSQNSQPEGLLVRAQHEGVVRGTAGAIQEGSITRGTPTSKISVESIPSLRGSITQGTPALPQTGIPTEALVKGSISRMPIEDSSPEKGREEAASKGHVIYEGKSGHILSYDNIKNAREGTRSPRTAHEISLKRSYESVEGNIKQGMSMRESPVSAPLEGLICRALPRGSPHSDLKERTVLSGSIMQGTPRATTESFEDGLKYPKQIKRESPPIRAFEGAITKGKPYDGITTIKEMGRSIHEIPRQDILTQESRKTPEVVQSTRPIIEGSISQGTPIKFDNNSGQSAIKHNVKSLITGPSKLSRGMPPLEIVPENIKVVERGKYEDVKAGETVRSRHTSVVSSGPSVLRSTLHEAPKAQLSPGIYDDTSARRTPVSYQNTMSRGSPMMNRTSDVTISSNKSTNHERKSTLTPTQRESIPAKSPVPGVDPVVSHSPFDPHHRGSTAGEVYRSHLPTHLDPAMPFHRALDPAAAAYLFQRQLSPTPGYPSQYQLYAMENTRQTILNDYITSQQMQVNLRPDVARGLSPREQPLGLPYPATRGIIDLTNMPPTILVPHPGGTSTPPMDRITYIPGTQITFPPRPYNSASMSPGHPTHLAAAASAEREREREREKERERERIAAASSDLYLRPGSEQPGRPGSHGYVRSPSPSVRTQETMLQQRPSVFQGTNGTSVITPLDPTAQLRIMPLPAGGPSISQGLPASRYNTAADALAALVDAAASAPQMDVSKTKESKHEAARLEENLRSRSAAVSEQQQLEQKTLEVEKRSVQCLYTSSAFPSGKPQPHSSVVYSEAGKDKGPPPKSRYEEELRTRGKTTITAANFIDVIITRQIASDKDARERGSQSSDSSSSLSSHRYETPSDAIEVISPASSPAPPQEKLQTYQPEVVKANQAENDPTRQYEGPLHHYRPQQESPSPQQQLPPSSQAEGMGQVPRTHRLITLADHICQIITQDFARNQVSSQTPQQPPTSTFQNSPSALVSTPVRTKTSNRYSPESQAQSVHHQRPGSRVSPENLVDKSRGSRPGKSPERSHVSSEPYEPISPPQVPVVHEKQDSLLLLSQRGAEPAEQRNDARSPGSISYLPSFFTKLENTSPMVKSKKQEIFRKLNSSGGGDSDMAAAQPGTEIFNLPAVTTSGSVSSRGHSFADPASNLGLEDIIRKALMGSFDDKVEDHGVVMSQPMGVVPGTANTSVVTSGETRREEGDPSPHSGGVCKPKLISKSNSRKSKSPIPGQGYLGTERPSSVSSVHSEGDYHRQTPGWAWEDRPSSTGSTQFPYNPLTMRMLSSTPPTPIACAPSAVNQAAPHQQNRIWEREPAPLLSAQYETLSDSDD

interaction with NCoR1 (NCoR1): slightly dissociated from sLZIP
transcriptional activity of PPARγ2 (relative luciferase activity) (PPARγ2): decreased
B1: sLZIP: human small leucine-zipper protein, isoform of LZIP, 354 amino acids, no transmembrane domain, GenBank FJ263669, SEQ ID NO: 1 (protein, listed as Homo sapiens)
chain: MELELDAGDQDLLAFLLEESGDLGTAPDEAVRAPLDWALPLSEVPSDWEVDDLLCSLLSPPASLNILSSSNPCLVHHDHTYSLPRETVSMDLESESCRKEGTQMTPQHMEELAEQEIARLVLTDEEKSLLEKEGLILPETLPLTKTEEQILKRVRRKIRNKRSAQESRRKKKVYVGGLESRVLKYTAQNMELQNKVQLLEEQNLSLLDQLRKLQAMVIEISNKTSSSSMYSSDTRGSLPAEHGVLSRQLRALPSEDPYQLELPALQSEVPKDSTHQWLDGSDCVLQAPGNTSCLLHYMPQAPSAEPPLEWPFPDLFSEPLCRGPILPLQANLTRKGGWLPTGSPSVILQDRYSG
ossification of skull and limb (sLZIP TG mouse embryos): further promoted ossification
osteoblast differentiation and bone nodule formation (MEF cells): promoted osteoblast differentiation and bone nodule formation
